For assay [1], the system named is Neogenin-induced apoptosis in chick tecta. Description: TUNEL assay after Neogenin electroporation. The note with it: injected into tecta after Neogenin electroporation; for number of TUNEL+ cells: without agent 432±23. It is filed as in vivo. How it is done: (A) HEK293 cells that stably express RGMa (FIG. 11) were transfected with empty plasmid (Ctrl) or Neogenin (Neo). Neogenin induced cell death (arrows) when compared to control. (B) Quantification of cell death in Neogenin-transfected cells that were incubated in BSA (Neo+Ctrl), 4Ig (1 μg/ml), N-Raft (1 μg/ml), Noggin (100 nM), or MβCD (10 mM). […] Data were average±SEM (n=3 independent experiments), *p<0.0001. (C) Representative images and (D) Quantification of cell death in chick E5 tecta electroporated with GFP- and a Neogenin-expression plasmid and then injected with N-RGMa50-99 (Ctrl; 1 μg/ml), 4Ig (1 μg/ml), or N-Raft (1 μg/ml) and subjected to TUNEL assay. […] Data were an average±SEM from 3 different tecta/conditions (*p<0.001). Bar, 100 μm. (E) Representative images and (F) Quantification of retinal whole mounts incubated for 4 days with control peptide (1 μg/ml), 4Ig (1 μg/ml), N-Raft (1 μg/ml), or MβCD (10 mM) and dead cells were stained with Propidium Iodide (PI). Images from 9 whole mounts per condition from 3 independent experiments were taken at the same intensities and the fluorescence measured using ImageJ. […] Bar, 500 μm. (G) Fluorescence micrographs of flat-mounted retinas depicting Fluorogold-labeled retinal ganglion cells (RGCs) in injured retinas at 14 days following axotomy. Control retinas (Ctrl) had few surviving RGCs. 4Ig, N-raft or MβCD increased cell survival. Bar, 200 μm. (H) Representations of the retinal areas selected in our analyses. […] Data were average±SEM (n=6 eyes), *p<0.01.
RGMa was expressed in the developing chick neural tube, and thus, to determine if Neogenin required lipid rafts for its pro-death function in vivo, apoptosis was examined in the neural tubes of chick embryos (E2). Specifically, a GFP-construct was electroporated with plasmids that expressed either Mock or Neogenin and apoptosis was assayed by TUNEL staining.

The test system of a further assay is injured spinal cord. Nature of the assay: Spinal cord injury, immunostaining and quantitative analysis (NeuN, GFAP, lesion volume). The format is in vivo, rat. The note with it: for lesion volume compared to controls: rat, in vivo; for increase in number of peri-lesional neurons (NeuN) compared to controls: systemic application for 6 weeks.
Another assay relates to photoreceptor cells. Description: Photoreceptor survival in rd1 mice (retinitis pigmentosa model). The format is in vivo, mouse. The method, then: The rd1 mouse model is a model for human RP and carried a loss-of-function mutation in the gene encoding for the β-subunit of the rod photoreceptor cGMP phosphodiesterase-6.2. This loss-of-function mutation led to an accumulation of cGMP, which caused photoreceptor cell death.
In these studies, intraocular injection of the 4Ig (2 μg/μl) peptide at P9 and P15 was performed and animals were sacrificed at P21 to examine cell survival. […] Injection of 4Ig increased outer nuclear layer (ONL) thickness to about 6 cells (FIG. 19). This measurement was the average thickness of the ONL.
As described above, cholesterol depletion removes lipid rafts. Specifically, mice were treated with daily […] (IP) injections of MβCD from P9 to P21.
To examine the effect of reducing cholesterol synthesis on cell survival, AY-9944 was examined in rd1 mice (FIGS. 20 and 21). Rd1 mice were treated using two intra-peritoneal injections of AY-9944, at P9 and P15 and sacrificed at P21.

For another assay, the system named is spinal cord injured rats. Description: Spinal cord injury (clip compression), functional analysis (BBB, motor subscore, ladder-walk). It is filed as in vivo, rat. The conditions noted are these: for functional recovery (BBB score and motor subscore) compared to controls: 4Ig IV or MβCD IP. How it is done: The spinal cord was injured by clip compression at spinal cord level T8 with a 20 g force. The 4Ig or vehicle was injected intraspinally immediately following SCI. 2 injections (250 ng/μL, 3 μL each) were made 1 mm rostral and 1 mm caudal to the lesion site and adjacent to the midline vein. Immediately following SCI, the 4Ig treated rats also received a 1 mg/kg dose of 4Ig intravenously (i.v.) via the intrajugular vein and subsequent i.v. injections weekly for 2 more weeks. Rats in the MβCD group received intraperitoneal (i.p.) injection of MβCD at 1000 mg/kg/week immediately following SCI and then daily i.p. injections until sacrifice. Control rats received equivalent vehicle volumes as described above.
To assess local delivery of 4Ig, 19 adult female Wistar rats were injured and injected rostral and caudal to the lesion site with 4Ig or PBS. Immediately after the intraspinal injections, 4Ig or PBS was delivered intrathecally and then continuously for 14 days (0.5 μL/hour) via the catheter and pump system.
Functional tests were performed before the injury, 1 day, and then weekly for 6 weeks post-SCI. Locomotor function was evaluated using the BBB locomotor rating scale. A score of 0 indicates no hindlimb movement, a score of 21 indicates unimpaired locomotion as observed in Control. Motor subscores were determined to assess toe clearance, predominant paw position and absence of instability. A maximal motor subscore of 7 means normal locomotion.
Ladder-walk analysis was done to assess fine motor functions. At 1 week post-SCI and weekly thereafter, rats with a BBB score greater than 10 were placed on the horizontal ladder-walk apparatus and 3 test runs were recorded. Recordings were analyzed in slow motion; the number of footfalls per hindlimb was recorded and the average was calculated for each rat per week.
Pre-operatively, 32 adult female Wistar rats (Charles River, St. Constant, QC, 200-300 g) were acclimatized and trained for baseline behavioral assessment. Rats were divided into 4 groups (n=8/group): 1) MBCD (i.p.); 2) vehicle control (i.p); 3) 4Ig (i.v. and intraspinal); 4) vehicle control (i.v. and intraspinal). Rats were anesthetized by inhalation of 2% isofluorane in combination with a mixture of nitrous oxide and oxygen (1:2, v/v). The spinal cord was exposed by laminectomy and a clip compression injury was made at spinal cord level T8 with a 20 g force. This was a clinically relevant model of SCI reflecting human pathology. n the 4Ig and equivalent control group, 4Ig or vehicle was injected intraspinally immediately following SCI. A total of 2 injections (250 ng/μL, 3 μL each) were made 1 mm rostral and 1 mm caudal to the lesion site and adjacent to the midline vein. Injections were made stereotactically with the aid of an operating microscope using a motorized microinjector at a rate of 1.5 μl/min with a 10 μl Hamilton syringe and a customized 32 G needle. The needle was left in place for an additional 2 min after injection to prevent leakage. The overlying muscle and skin were sutured with 3-0 vicryl sutures (Johnson and Johnson, Peterborough ON, Canada).
Immediately following SCI, the 4Ig treated rats also received a 1 mg/kg dose of 4Ig i.v. via the intrajugular vein and subsequent i.v. injections weekly for 2 more weeks. Rats in the MβCD group received intraperitoneal injection of MβCD at 1000 mg/kg/week immediately following SCI and then daily i.p. injections until sacrifice. Control rats received equivalent volumes as described above. Bladders were evacuated manually 3 times daily until spontaneous voiding was established, and hematuria or urinary tract infection was treated with Clavomax (62.5 mg PO BID for 7 days). The rats were housed singly in a temperature-controlled room at 26° C. with a 12 hour light/dark cycle. Water and food were provided ad libitum. […]

Setting [2] is: intraocular injection at P9 and P15.

This is an account of results in patent US11497796B2, “Agents directed against a cis RGMa/neogenin interaction or lipid rafts and use of the same in methods of treatment” (UNIVERSITY HEALTH NETWORK, priority 2013, dated 2022).

On to “N-Raft: peptide spanning amino acids 28-73 of RGMa (SEQ ID NO:2) (SPCKILKCNSEFWAATSGSHHLGAEETPEFCTALRAYAHCTRRTAR; N-Raft - amino acids 28-73 of RGMa)”, for which, in assay [1], the “reduction of the number of TUNEL+ cells” value is recorded as “about 4 fold” and the “number of TUNEL+ cells” value amounted to 103±8.
“methyl-β-cyclodextrin [MβCD, reference compound]”: in the assay on injured spinal cord, the “lesion volume compared to controls” value is given as “did not significantly vary” and the “increase in number of peri-lesional neurons (NeuN) compared to controls” value is given as “about 2 fold”. In addition, in the assay on photoreceptor cells (daily injections P9 to P21), the “average depth of the ONL” value was “about 6 cells”, the “increase in the average thickness of the ONL” value is “three-fold” and the photoreceptor survival result is “photoreceptor survival was improved”. Further, the “number of rods within the Outer Nuclear Layer (anti-Rhodopsin)” value in the assay with photoreceptor cells (injected at P9, P21) is recorded as “dramatic increase in the number of rods”. Also, the “functional recovery (BBB score and motor subscore) compared to controls” value with spinal cord injured rats (as early as 2-3 weeks post-SCI) was “significant functional recovery”. For the same molecule, in the assay on spinal cord injured rats (older animals (greater than 7 month), post-SCI), the “improvement of locomotor recovery vs. control” value is reported as “+6.8 BBB points”.

B1: 4Ig: four immunoglobulin-like domains of Neogenin, amino acids 1 to 383 of Accession No. AAC59662 (SEQ ID NO:1) (protein, listed as Gallus gallus)
chain: RSGPRSPLTGSVVRTFTPFYFLVEPMDILSVRGASVIMNCSSYCETPPKIEWKKDGTLLNLVSDDRRQLLPDGSLLINSVVHSKHNKPDEGYYQCVATVESLGSIVSRTAKLTVAGLPRFTSQPELSSVYKGNSAILNCEVNVDLAPFVRWEQDRQPLSLDDRVFKLPSGALLIGNATDTDGGFYRCVIESGGTPKYSEEAELKILPDPEEPQSLVFVRQPSSLTKVTGQNAVFPCVAGGFPTPYVRWTKNGEELITEDSERFALRAGGSLLISDVTEEDVGTYTCIADNENETIEAQAELAVQVPPEFLKRPANIYAHESMDIVFECEVTGKPTPTVKWVKNGDVVIPSDYFKIVKEHNLQVLGLVKSDEGFYQCIAENDVGNAQAGAQLIILDLDVAIPTLPPTSLTSATNDHLAPATTGPLPTAPRDVVATLVSTRFIRLTWRTPVSDPQGDNLTYSIFYTKEGINRERVENTSRPGETQVMIQNLMPETVYVFRVVAQNKHGHGESSAPLKVATQPEVQLPGPAPNIRAYAGSPTSVTVTWETPLSGNGEIQNYKLYYMEKGQDSEQDVDVAGLSYTITGLKKYTEYSFRVVAYNKHGPGVSTQDVVVRTLSDVPSAAPQNLTLEARNSKSIMLHWQPPPAGTHSGQITGYKIRYRKVSRKSDVTESVGGTQLFQLIEGLERGTEYNFRIAAMTVNGTGPATDWVSAETFESDLDESRVPEVPSSLHVRPLVTSIVVSWTPPENQNIVVRGYAIGYGIGSPHAQTIKVDYKQRYYTIENLDPSSHYVITLKAFNNVGEGIPLYESAVTRPHSDTSEVDLFVINAPYTPVPDPSPMMPPVGVQASILSHDTIRITWADNSLPKNQKITDARYYTVRWKTNIPANTKYKTANATTLSYLVTGLKPNTLYEFSVMVTKGRRSSTWSMTAHGTTFELVPTSPPKDVTVVSKEGKPRTIIVNWQPPSEANGKITGYIIYYSTDVNAEIHDWVIEPVVGNRLTHQIQELTLDTPYYFKIQARNSKGMGPMSEAVQFRTPKAESSDKMPNDQASGSAGKGSRPVDVGPDYKPPLSGSNSPHGSPTSPLDSNMLLVIIVSVGVITIVIVVIVAVFCTRRTTSHQKKKRAACKSVNGSHKYKGNSKDVKPPDLWIHHERLELKPIDKSPDPNPIMTDTPIPRNSQDITPVDNSMDSNIHQRRNSYRGHESEDSMSTLAGRRGMRPKMMMPFDSQPPQPVISAHPIHSLDNPHHHFHSGSLASPTRSYLHHQVSPWPVGTSMSHSDRANSTESVRNTPSSDTMPASSSQPCADHQDPDSSSGAYLGSAQEEDAAQSLPTAHVRPSHPLKSFAVPAVPAAGSAYDPTLPSTPLLTQQAPSHPVHSVKTASIGTLGRTRPPMPVVVPSAPDVQETTRMLEDSESSYEPDELTKEMAHLEGLMKDLNAITTA
modifications: Neogenin - Accession No. AAC59662
With B1, the “increase of NeuN positive cells in cross-sections of the spinal cord” value in the assay on injured spinal cord (intrathecal application over 6 weeks) is “about 2 fold”. In the assay on injured spinal cord, the “lesion volume compared to controls” value is recorded as “did not significantly vary” and the “increase in number of peri-lesional neurons (NeuN) compared to controls” value was “about 2 fold”. Also, the “outer nuclear layer (ONL) thickness” value in the assay on photoreceptor cells (intraocular injection 2 μg/μl at P9 and P15, P21, control about 2 cells) was “about 6 cells”. In the assay with photoreceptor cells (setting [2]), the “increase of ONL thickness compared to control mice” value is listed as “more than three-fold” and the “number of photoreceptors within the retina vs control” value was “significantly improved the number of photoreceptors”. In addition, in assay [1], the “reduction of the number of TUNEL+ cells” value is listed as “about 18 fold” and the “number of TUNEL+ cells” value was found to be 23±4. For the same molecule, the “functional recovery (BBB score and motor subscore) compared to controls” value in the assay with spinal cord injured rats (as early as 2-3 weeks post-SCI) is given as “significant functional recovery”. Also, in the assay with spinal cord injured rats (intrathecal), the “hindlimb coordination (footfalls), local application” value is “fewer footfalls”. The “functional recovery (BBB score), local application” value in the assay with spinal cord injured rats (intrathecal, Alzet mini-osmotic pumps, as early as 2-3 weeks post-SCI) is given as “significant functional recovery”. For the same molecule, the “hindlimb coordination, ladder-walk test (footfalls)” value with spinal cord injured rats (systemic treatment) was “fewer footfalls”.
